Test results from patent US20230068663A1 (University of Texas, published 2023).

T1: LAIR1 on reporter cells (UniProt Q6GTX8 22-165, limits assumed)
T1 sequence (looked up): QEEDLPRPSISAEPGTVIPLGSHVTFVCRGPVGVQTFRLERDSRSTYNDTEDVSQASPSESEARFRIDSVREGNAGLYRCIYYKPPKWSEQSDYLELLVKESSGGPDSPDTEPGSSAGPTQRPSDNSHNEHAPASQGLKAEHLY

B1: B2-7 (antibody, V domains shown)
VH: EVQLVESGGGVVQPGRSLRLSCAASGFTISSYGMHWVRQAPGKGLEWVAVISYDGSNKYYADSVKGRFTISRDNSKNTLYLQMNSLRVEDTAVYYCAKDLLLRYFDWSPKYYYNGMDVWGQGTMVTVSS
VL: QSVLTQPPSVSVAPGKTARITCGGNNIGSKSVHWYQQKPGQAPVLVVYDDSDRPSGIPERFSGSNSGNTATLTISRVEAGDEADYYCQVWDSSSDHPGVFGTGTKVTVL
notes: also called B2-7_HC; B2-7_LC
B2: B2-19 (antibody, V domains shown)
VH: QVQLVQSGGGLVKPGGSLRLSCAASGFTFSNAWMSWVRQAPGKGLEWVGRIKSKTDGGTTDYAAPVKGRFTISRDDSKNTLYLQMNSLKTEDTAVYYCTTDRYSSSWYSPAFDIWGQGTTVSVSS
VL: QPVLTQPPSVSEAPRQRVTISCSGSSSNIGNNVVNWYQQLPGKAPKLLIYYDDLLPSGVSDRFSGSKSGTSASLAISGLQSEDEADYYCATWDDSLNGPVFGGGTKLTVL
notes: also called B2-19_HC; B2-19_LC
B3: B2-15 (antibody, V domains shown)
VH: EVQLVQSGAEVKKSGASVKVSCKSSGYTFTNYGISWVRQAPGQGLEWMGWISGDAGDTKFAQKFQGRVTMTTDTSTTTTYMELRSLRSDDTAVYYCARDGEYIPMFRGFDNYYGLDVWGQGTLVSVSS
VL: QSVLTQPPSASATPGQRVTISCSGRNANIGSNPVNWYQQLPGTAPRLVMYSNNQRPSGVPDRFSGSKSGTSASLAISGLQSEDEADYYCEGWDDSLNGYVFGTGTKVTVL
notes: also called B-15; B2-15_HC
B4: B2-16 (antibody, V domains shown)
VH: QVQLVQSGAEVKKPGSSVKVSCKASGGTFSSYAISWVRQAPGQGLEWMGGIIPIFGTANYAQKFQGRVTITADESTSTAYMELSSLRSEDTAVYYCASGIIPDNPYGMDVWGQGTMVSVSS
VL: DIVMTQSPLSLPVTLGQPASISCTSSQSLVYSDGNTYLNWFHQRPGQSPRRLFYKVSNRASGVPDRFSGSGSGTDFTLKISRVEAEDLGVYYCMQGTHWPVTFGQGTRLEIK
notes: also called B2-16_HC; B2-16_LC
B5: B2-17 (antibody, V domains shown)
VH: EVQLLDSGPRLLKPSETLSLTCGVSGVSTSSTHWWSWVRQTPGKGLEWIGEILHNGNTNSNPSLKSRVSMSIDKSRNQFSLQLKSMTAADTAVYYCASASPNWGASGAFDAWAQGTMVTVSS
VL: QSVLTQPPSASATPGQRVTISCSGSSSNIGSNPVNWYQQVPGMAPELVMYSDNQRPSGVPDRFSGSNSGTSASLAISGLQSEDEADYYCSTWDDSLNGLVFGTGTKVTVL
notes: also called B2-17_HC; B2-17_LC

Target: T2, LILRB2 chimeric receptor on LILRB2 reporter cells (extracellular domain of LILRB2 fused with … (UniProt Q8N423 22-460))
Experiment: cell-based or functional assay

Binder | Blocking potency (IC50) of GFP expression in LILRB2 reporter cells induced by coated ANGPTL2 [µg/mL]
B1 | 0.221
B2 | 0.0485
B3 | 0.341
B4 | 0.131
B5 | 0.405

Target: T3, LILRB1
T3 construct: also called LILRB1 reporter cells; not shown: transmembrane/intracellular domains of PILRb, the display part of the chimeric reporter receptor
Experiment: flow cytometry, reporter cells
Procedure: (§1) FIG. 29. Binding of LILRB2 antibodies on reporter cell line expressing ectodomain of LILR family proteins on cell surface. Bound antibodies were detected with anti-human Fc-specific secondary antibody (2nd Ab) conjugated to AF647. […] All incubations were performed for 30 minutes at 4° C. Data shown is mean fluorescence intensity after sample acquisition in flow cytometer.

T3 sequence (chain, as listed by the source limits assumed): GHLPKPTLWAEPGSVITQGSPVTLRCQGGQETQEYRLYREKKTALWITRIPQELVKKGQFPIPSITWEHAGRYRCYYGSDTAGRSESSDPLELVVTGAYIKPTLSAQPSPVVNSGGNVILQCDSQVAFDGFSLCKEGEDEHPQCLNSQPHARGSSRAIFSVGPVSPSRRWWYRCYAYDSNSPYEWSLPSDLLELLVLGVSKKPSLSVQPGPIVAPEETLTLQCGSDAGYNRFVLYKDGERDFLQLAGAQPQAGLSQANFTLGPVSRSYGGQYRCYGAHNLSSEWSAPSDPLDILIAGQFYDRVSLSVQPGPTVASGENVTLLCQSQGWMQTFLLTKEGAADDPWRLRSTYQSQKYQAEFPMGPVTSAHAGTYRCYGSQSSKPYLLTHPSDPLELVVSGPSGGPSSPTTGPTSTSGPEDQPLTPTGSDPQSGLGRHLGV

Binder | MFI | binding result
B1 | 10 | no binding
B2 | 10 | no binding
B3 | 9 | no binding
B4 | 10 | no binding
B5 | 9 | no binding

Target: T4, LILRB3
T4 construct: also called LILRB3 reporter cells; not shown: transmembrane/intracellular domains of PILRb, the display part of the chimeric reporter receptor
Experiment: flow cytometry, reporter cells
Procedure: as §1

Binder | MFI | binding result
B1 | 11 | no binding
B2 | 9 | no binding
B3 | 9 | no binding
B4 | 10 | no binding
B5 | 10 | no binding

Target: T5, LILRB4
T5 construct: also called LILRB4 reporter cells; not shown: transmembrane/intracellular domains of PILRb, the display part of the chimeric reporter receptor
Experiment: flow cytometry, reporter cells
Procedure: as §1

Binder | MFI | binding result
B1 | 15 | no binding
B2 | 14 | no binding
B3 | 14 | no binding
B4 | 14 | no binding
B5 | 13 | no binding

Target: T6, LILRB5
T6 construct: also called LILRB5 reporter cells; not shown: transmembrane/intracellular domains of PILRb, the display part of the chimeric reporter receptor
Experiment: flow cytometry, reporter cells
Procedure: as §1

T6 sequence (chain, as listed by the source limits assumed): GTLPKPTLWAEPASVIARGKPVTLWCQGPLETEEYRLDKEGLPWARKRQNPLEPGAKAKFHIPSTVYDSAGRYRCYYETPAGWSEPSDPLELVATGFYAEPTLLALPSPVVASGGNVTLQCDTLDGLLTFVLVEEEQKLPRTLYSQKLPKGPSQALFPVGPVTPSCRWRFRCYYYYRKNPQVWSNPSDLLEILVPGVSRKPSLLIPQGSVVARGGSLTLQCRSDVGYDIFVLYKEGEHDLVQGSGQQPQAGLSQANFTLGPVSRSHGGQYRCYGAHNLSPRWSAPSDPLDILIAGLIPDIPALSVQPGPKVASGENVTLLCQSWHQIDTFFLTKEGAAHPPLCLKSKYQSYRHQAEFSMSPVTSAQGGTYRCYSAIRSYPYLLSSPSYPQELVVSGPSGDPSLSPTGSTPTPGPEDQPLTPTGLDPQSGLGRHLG

Binder | MFI | binding result
B1 | 11 | no binding
B2 | 11 | no binding
B3 | 11 | no binding
B4 | 11 | no binding
B5 | 10 | no binding

Target: T7, LILRA2
T7 construct: also called LILRA2 reporter cells; not shown: transmembrane/intracellular domains of PILRb, the display part of the chimeric reporter receptor
Experiment: flow cytometry, reporter cells
Procedure: as §1

T7 sequence (chain, as listed by the source limits assumed): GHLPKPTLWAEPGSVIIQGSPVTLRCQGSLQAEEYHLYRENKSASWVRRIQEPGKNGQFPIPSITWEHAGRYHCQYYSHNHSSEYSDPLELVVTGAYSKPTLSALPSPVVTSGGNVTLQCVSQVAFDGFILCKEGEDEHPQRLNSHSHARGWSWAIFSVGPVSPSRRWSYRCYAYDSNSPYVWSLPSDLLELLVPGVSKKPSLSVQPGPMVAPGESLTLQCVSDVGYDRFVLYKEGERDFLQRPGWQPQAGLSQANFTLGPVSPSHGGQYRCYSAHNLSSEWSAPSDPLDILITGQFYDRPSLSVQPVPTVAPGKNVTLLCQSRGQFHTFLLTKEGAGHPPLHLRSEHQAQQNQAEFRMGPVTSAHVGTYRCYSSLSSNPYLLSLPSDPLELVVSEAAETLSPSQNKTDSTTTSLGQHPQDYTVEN

Binder | MFI | binding result
B1 | 10 | no binding
B2 | 10 | no binding
B3 | 10 | no binding
B4 | 10 | no binding
B5 | 10 | no binding

Target: T8, LILRA3
T8 construct: also called LILRA3 reporter cells; not shown: transmembrane/intracellular domains of PILRb, the display part of the chimeric reporter receptor
Experiment: flow cytometry, reporter cells
Procedure: as §1

T8 sequence (chain, as listed by the source limits assumed): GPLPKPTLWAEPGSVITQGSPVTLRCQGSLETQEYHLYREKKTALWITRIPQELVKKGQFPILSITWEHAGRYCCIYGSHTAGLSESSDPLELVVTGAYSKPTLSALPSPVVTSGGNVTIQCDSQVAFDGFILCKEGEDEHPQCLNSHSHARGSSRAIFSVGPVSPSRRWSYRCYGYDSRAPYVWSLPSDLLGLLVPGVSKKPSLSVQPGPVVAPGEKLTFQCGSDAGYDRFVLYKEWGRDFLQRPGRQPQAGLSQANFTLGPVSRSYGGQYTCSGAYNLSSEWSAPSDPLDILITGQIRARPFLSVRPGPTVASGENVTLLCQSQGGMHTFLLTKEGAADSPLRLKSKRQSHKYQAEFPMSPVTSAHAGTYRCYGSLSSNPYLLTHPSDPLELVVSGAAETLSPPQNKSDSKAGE

Binder | MFI | binding result
B1 | 10 | no binding
B2 | 10 | no binding
B3 | 10 | no binding
B4 | 10 | no binding
B5 | 10 | no binding

Target: T9, LILRA4
T9 construct: also called LILRA4 reporter cells
Experiment: flow cytometry, reporter cells
Procedure: as §1

T9 sequence (chain, as listed by the source limits assumed): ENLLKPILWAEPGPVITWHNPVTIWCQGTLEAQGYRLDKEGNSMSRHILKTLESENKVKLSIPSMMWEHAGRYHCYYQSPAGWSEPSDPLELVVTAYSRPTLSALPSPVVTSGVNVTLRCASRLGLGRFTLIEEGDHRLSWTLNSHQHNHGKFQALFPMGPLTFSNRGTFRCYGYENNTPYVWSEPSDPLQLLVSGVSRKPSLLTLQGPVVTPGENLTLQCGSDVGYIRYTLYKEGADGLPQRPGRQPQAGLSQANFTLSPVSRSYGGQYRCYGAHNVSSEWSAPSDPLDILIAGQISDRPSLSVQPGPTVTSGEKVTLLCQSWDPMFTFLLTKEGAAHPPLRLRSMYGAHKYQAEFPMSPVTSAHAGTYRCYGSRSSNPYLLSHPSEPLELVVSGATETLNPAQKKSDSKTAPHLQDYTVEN

Binder | MFI | binding result
B1 | 10 | no binding
B2 | 10 | no binding
B3 | 9 | no binding
B4 | 10 | no binding
B5 | 10 | no binding

Target: T10, LILRA5
T10 construct: also called LILRA5 reporter cells
Experiment: flow cytometry, reporter cells
Procedure: as §1

T10 sequence (chain, as listed by the source limits assumed): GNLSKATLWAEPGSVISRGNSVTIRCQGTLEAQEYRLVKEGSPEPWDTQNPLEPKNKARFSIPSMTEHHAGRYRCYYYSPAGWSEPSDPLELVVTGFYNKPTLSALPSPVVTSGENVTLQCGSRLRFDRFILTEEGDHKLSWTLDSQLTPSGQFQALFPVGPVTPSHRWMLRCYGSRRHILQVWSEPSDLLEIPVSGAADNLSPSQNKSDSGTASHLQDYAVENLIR

Binder | MFI | binding result
B1 | 11 | no binding
B2 | 11 | no binding
B3 | 11 | no binding
B4 | 12 | no binding
B5 | 10 | no binding

Target: T11, LILRA6
T11 construct: also called LILRA6 reporter cells
Experiment: flow cytometry, reporter cells
Procedure: as §1

T11 sequence (chain, as listed by the source limits assumed): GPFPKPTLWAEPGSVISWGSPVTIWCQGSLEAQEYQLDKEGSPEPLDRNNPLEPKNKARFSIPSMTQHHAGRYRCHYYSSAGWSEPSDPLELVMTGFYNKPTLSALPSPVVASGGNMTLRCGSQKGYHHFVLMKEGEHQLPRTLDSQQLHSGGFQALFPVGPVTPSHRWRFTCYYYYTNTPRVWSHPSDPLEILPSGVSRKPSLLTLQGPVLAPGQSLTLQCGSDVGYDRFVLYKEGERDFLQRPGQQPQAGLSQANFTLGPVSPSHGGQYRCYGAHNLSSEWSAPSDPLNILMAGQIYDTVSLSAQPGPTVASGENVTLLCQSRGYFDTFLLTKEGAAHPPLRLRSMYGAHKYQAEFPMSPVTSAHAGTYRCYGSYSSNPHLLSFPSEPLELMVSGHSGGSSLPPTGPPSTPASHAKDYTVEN

Binder | MFI | binding result
B1 | 11 | no binding
B2 | 11 | no binding
B3 | 10 | no binding
B4 | 12 | no binding
B5 | 11 | no binding

Target: T2, LILRB2 chimeric receptor on LILRB2 …
Experiment: flow cytometry, reporter cells
Procedure: as §1

Binder | MFI
B1 | 1160
B2 | 1280
B3 | 910
B4 | 940
B5 | 1100

Target: T12, LILRA1 on reporter cells (extracellular domain) (UniProt O75019 17-461, limits assumed)
T12 construct: extracellular domain
Experiment: flow cytometry, reporter cells
Procedure: as §1

T12 sequence (O75019 17-461 limits assumed): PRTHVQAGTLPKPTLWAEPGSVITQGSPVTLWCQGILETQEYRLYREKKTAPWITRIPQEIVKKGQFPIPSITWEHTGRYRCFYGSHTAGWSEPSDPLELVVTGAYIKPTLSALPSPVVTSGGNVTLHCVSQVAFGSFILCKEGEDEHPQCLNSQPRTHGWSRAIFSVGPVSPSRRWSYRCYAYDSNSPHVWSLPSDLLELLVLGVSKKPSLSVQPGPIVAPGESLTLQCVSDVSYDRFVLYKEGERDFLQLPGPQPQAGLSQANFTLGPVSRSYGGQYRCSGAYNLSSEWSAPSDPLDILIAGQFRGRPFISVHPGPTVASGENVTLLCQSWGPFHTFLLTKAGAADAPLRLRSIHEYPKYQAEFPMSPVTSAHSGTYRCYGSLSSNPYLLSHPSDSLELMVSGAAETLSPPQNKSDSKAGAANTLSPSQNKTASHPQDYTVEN

Binder | MFI | binding result
B1 | 12 | no binding
B2 | 11 | no binding
B3 | 10 | no binding
B4 | 12 | no binding
B5 | 11 | no binding

Target: T1, LAIR1 on reporter cells
Experiment: flow cytometry, reporter cells
Procedure: as §1

Binder | MFI | binding result
B1 | 23 | no binding
B2 | 22 | no binding
B3 | 22 | no binding
B4 | 24 | no binding
B5 | 23 | no binding

Target: T13, LILRB2-His antigen (UniProt Q8N423 22-460, limits assumed)
T13 construct: Coated on ELISA plates; also used for phage panning; also called LILRB2 antigen; not shown: His tag
Experiment: indirect ELISA, coated LILRB2-His
Procedure: ELISA binding EC of LILRB2 antibodies. The ELISA binding EC₅₀ of these 24 antibodies were measured by indirect ELISA. […] After incubation, HRP-conjugated goat anti-human Fc secondary antibody was incubated with the plates. The TMB substrate was added for color development and measurement of absorbance at 450 nm.

Binder | EC50 [nM]
B1 | 82.9
B2 | 3.82
B3 | 46.5
B4 | 9.97
B5 | 24.6

Target: T2, LILRB2 chimeric receptor on LILRB2 …
Experiment: flow cytometry, LILRB2 reporter cells
Source text: FIGS. 1A-C. Screening specific monoclonal antibodies for LILRB2. […] Binding of monoclonal antibodies was screened using flow cytometer on LILRB2 reporter cells. Bound antibodies were detected with Allophycocyanin (APC)-labeled goat anti-human IgG secondary antibody. (FIG. 1B) Quantification of binding ability of monoclonal antibodies to LILRB2 reporter cells.
Screening specific monoclonal antibodies for LILRB2. The inventors employed a stable reporter cell system to detect the binding ability of selected monoclonal antibodies to LILRB2. In this chimeric receptor reporter system, the extracellular domain (ECD) of LILRB2 is fused with transmembrane/intracellular domains of PILRb that associates with the adaptor protein DAP12 containing an immunoreceptor tyrosine-based activation motif. 27 monoclonal antibodies were screened. The LILRB2 reporter cells were incubated with selected monoclonal antibody, then labeled with (APC) goat anti-human IgG secondary antibody. […] The inventors generated LILRBAs and LILRBs reporters stably transduced with each receptor's extracellular domain (ECD).

Binder | % of cells anti-hIgG APC+ [%]
B1 | 94.2
B2 | 95.3
B3 | 94.3
B4 | 95
B5 | 94.3

Target: T14, full length human LILRB2 stably expressed on HEK293 cells (human, UniProt Q8N423 22-597)
T14 construct: whole, on cells; also called HEK293_LILRB2
Experiment: flow cytometry, HEK293 cells expressing full length human LILRB2
Procedure: FIG. 31. Binding of LILRB2 antibodies on HEK293 stably expressing full length human LILRB2. Fifty thousand cells were incubated with a dilution series (40-0.0006 μg/mL) of LILRB2 antibodies in a final volume of 100 μL. Bound antibodies were detected with anti-human Fc-specific secondary antibody conjugated to AF647. All incubations were performed for 30 minutes at 4° C. Data shown is averaged geometric mean fluorescence intensity ± standard error of the mean (s.e.m.) after sample acquisition (in duplicates) in flow cytometer (BD FACS Celesta) and subtracted by background fluorescence of samples incubated with secondary antibody only.

Binder | EC50 [µg/mL]
B1 | 0.212
B2 | 0.208
B3 | 0.101
B4 | 0.277
B5 | 0.105
